Measured values published in US20090311183 (published 2009).
Changes are numbered by the printed parent chain. Read-outs that look alike come from different tables or passages of the source.

B1: 539B-M0121-E07 (antibody, V domains shown)
VH: EVQLLESGGGLVQPGGSLRLSCAASGFTFSWYGMHWVRQAPGKGLEWVSGIVSSGGETFYADSVKGRFTISRDNSKNTLYLQMNSLRAEDTAVYYCAKDIRGVFLSGLFDHWGRGTLVTVSS
VL: DIQMTQSPSSLSASVGDRVTITCRANQSIYTYLNWYQQKPGKAPELLIYAASSLQSGVPSRFSGSGSGTDFTLTISSLQPEDFATYYCQQAGIFGQGTKLEIK
B2: 539B-M0065-H05 IgG (antibody, V domains shown)
VH: B1 VH with W31Y, H35G, G50V, V52S, E57F, V103A, F104Y, L105S, H111Y
VL: B1 VL
B3: 539B-M0131-A06 (antibody, V domains shown)
VH: EVQLLESGGGLVQPGGSLRLSCAASGFTFSWYWMHWVRQAPGKGLEWVSGISPSGGMTMYADSVKGRFTISRDNSKNTLYLQMNSLRAEDTAVYYCARDIVGPYSAGLFDYWGRGTLVTVSS
VL: B1 VL
B4: 539B-M0130-C12 (antibody, V domains shown)
VH: B3 VH with W31E, W33N, S52V, M57L, M59H, V101R, P103A, L108I
VL: B1 VL
B5: 539B-M0118-F11 (antibody, V domains shown)
VH: B3 VH with W31Y, W33N, M57T, M59F, V101T, P103A, Y111L
VL: B1 VL

Key:
Test in all cases: SPR
human MMP-12 [1] = target: human MMP-12 (human)
Chain of human MMP-12 (human) (B2R9X8 whole entry): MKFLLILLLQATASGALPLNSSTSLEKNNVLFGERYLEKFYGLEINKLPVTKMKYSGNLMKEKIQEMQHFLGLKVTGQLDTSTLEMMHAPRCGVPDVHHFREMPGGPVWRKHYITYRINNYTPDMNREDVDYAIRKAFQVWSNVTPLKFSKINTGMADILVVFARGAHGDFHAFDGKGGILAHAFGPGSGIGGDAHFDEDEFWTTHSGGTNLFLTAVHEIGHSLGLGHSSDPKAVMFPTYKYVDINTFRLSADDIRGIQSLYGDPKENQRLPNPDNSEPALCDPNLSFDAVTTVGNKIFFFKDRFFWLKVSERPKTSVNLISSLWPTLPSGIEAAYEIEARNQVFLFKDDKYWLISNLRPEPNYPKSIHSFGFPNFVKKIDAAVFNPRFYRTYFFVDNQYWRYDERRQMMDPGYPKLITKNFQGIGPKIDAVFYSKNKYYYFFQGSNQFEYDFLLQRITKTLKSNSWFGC

human MMP-12 [2] = target: human MMP-12 (human); remark: listed apart in the source
mouse MMP-12 = mouse MMP-12 (mouse)
Chain of mouse MMP-12 (mouse) (chain, as listed by the source): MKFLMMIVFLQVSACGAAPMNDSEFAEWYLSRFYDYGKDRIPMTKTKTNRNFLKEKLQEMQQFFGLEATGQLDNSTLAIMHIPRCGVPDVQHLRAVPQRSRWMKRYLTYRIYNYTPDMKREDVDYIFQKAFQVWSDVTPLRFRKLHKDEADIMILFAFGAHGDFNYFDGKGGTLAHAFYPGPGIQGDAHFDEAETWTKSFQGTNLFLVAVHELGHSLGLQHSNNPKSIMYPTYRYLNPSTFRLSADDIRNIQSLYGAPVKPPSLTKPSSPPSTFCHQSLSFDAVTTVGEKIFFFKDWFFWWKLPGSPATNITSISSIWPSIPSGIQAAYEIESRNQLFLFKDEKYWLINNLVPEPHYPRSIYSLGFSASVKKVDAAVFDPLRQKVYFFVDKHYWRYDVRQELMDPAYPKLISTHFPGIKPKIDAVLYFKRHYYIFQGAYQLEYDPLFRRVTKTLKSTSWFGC

Row | Binder | Kd (human MMP-12 [1]) | Kd (human MMP-12 [2]) | koff (mouse MMP-12)
1 | B1 | 0.197 nM | – | –
2 | B2 | – | 2.2 nM | –
3 | B3 | – | – | 4.84e-05 s⁻¹
4 | B4 | – | 0.68 nM | –
5 | B5 | 1.17 nM | – | 0.000193 s⁻¹
